Assay results: patent US20260216365A1, “ANTIBODY-DRUG CONJUGATES AGAINST THE RECEPTOR TYROSINE KINASE EPHA5” (Rutgers, The State University of New Jersey, priority 2021, published 2026)
Substitutions are numbered along the chain they refer to. Values joined by “and” are separate entries in the source; they are usually repeats but may differ in a detail not shown here. Equal values may be shown once. Values belong to the molecule of their own block, whether it stands above or below them.

Tests used:
[1] = biological target: T1, recombinant human EphA5 (rhEphA5) antigen (Homo sapiens, UniProt P54756); assay: Biacore multi-cycle kinetic analysis of purified antibodies, 1:1 model; assay type: binding; conditions: for binding to EphA5 relative to the chimeric antibody (VH0/VK0): purified antibodies, multi-cycle kinetics
T1 construct: purchased R and D systems 3036-A5
T1 sequence (P54756 25-573 limits assumed): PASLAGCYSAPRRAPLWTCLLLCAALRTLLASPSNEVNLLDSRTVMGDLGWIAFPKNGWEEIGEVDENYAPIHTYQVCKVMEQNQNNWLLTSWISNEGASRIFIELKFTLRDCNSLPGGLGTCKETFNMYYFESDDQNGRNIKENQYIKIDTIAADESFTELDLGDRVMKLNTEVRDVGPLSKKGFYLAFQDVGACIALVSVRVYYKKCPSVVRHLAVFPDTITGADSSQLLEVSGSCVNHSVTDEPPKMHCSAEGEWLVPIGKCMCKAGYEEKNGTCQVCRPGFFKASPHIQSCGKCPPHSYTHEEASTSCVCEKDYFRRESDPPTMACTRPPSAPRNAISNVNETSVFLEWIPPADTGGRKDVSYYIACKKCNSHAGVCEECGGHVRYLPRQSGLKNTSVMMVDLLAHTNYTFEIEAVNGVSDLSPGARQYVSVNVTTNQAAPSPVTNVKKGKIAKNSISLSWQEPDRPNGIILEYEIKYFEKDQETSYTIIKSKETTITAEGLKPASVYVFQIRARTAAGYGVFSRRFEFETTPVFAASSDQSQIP
Procedure: In order to assess the binding of the six lead humanized variants to rhEphA5 antigen, multi-cycle kinetic analysis (FIG. 68) was performed on purified material. Kinetic experiments were performed at 25° C. on a Biacore T200 running Biacore T200 Control software V2.0.1 and Evaluation software V3.0 (GE Healthcare, Uppsala, Sweden).
HBS-P+ (GE Healthcare, Uppsala, Sweden), supplemented with 1% BSA w/v (Sigma, Dorset, UK) was used as running buffer as well as for ligand and analyte dilutions. Purified lead antibodies were diluted to 0.5 μg/mL in running buffer and at the start of each cycle, loaded onto Fc2, Fc3 and Fc4 of an anti-human IgG CM5 sensor chip (GE Healthcare, Little Chalfont, UK). Antibodies were captured at a flow rate of 10 μl/min to give an immobilization level (RL) of ~50 RU. The surface was then allowed to stabilize.
Multi-cycle kinetic data was obtained using recombinant EphA5 as the analytes injected at a flow rate of 30 μl/min to minimize any potential mass transfer effects. A five point, three-fold dilution range from 1.11 nM to 270 nM of EphA5 was prepared in running buffer. For each concentration, the association phases were monitored for 210 seconds and the dissociation phase was measured for 900 seconds. Regeneration of the sensor chip surface was conducted between cycles using two injections of 3 M MgCl2. Multiple repeats of a blank and of EphA5 were programmed into the kinetic run in order to check the stability of both the surface and analyte over the kinetic cycles.
The signal from the reference channel Fc1 (no IgG captured) was subtracted from that of Fc2, Fc3 and Fc4 to correct for bulk effect and differences in non-specific binding to a reference surface. The signal from each IgG blank run (IgG captured but no antigen) was subtracted to correct for differences in surface stability. The double referenced sensorgrams were fitted with the Langmuir (1:1) binding model where the closeness of fit of the data to the model is evaluated using the Chi square value which describes the deviation between the experimental and fitted (observed and expected) curves. The fitting algorithm seeks to minimize the Chi square value.
A summary of the kinetic constants determined from the 1:1 model fitted curves is shown in FIG. 19 with fitted curves shown in FIG. 20.

[2] = Thermal ramp stability (UNcle, Sypro Orange fluorescence and static light scattering); assay type: physicochemical
Excerpt: Thermal ramp stability experiments (Tm and Tagg) are well established methods for ranking proteins and formulations for stability. A protein's denaturation profile provides information about its thermal stability and represents a structural ‘fingerprint’ for assessing structural and formulation buffer modifications. A widely used measure of the thermal structural stability of a protein is the temperature at which it unfolds from the native state to a denatured state. For many proteins, this unfolding process occurs over a narrow temperature range and the mid-point of this transition is termed ‘melting temperature’ or ‘Tm’. To determine the melting temperature of a protein, UNcle measures the fluorescence of Sypro Orange (which binds to exposed hydrophobic regions of proteins) as the protein undergoes conformational changes.
Samples for each variant were formulated in PBS and Sypro Orange at a final concentration of 1 mg/mL. 9 μL of each sample mixture was loaded in duplicate into UNi microcuvettes. Samples were subjected to a thermal ramp from 25-95° C., with a ramp rate of 0.3° C./minute and excitation at 473 nm. Full emission spectra were collected from 250-720 nm, and the area under the curve between 510-680 nm was used to calculate the inflection points of the transition curves (Tonset and Tm). Monitoring of static light scattering (SLS) at 473 nm allowed the detection of protein aggregation, and Tagg (onset of aggregation) was calculated from the resulting SLS profiles. Thermal stability values determined lie in a broad range from 57.9 to 69.6° C. (Tm1), 55.1 to 65.2° C. (Tonset) and 65.6 to 70.2° C. (Tagg) with the humanized leads generally showing improved profiles when compared to the chimeric antibody. […] All humanized antibodies appear to have a higher Tm1, Tonset and Tagg compared to the chimeric antibody.

[3] = biological target: T2, H460 cell line stably expressing EphA5 (Homo sapiens, UniProt P54756); assay: Flow cytometry analysis of cell binding, EphA5-positive cells; conditions: starting 10 μg/ml, four-fold serial dilution, 4° C. 30 minutes
T2 construct: A H460 cell line stably expressing EphA5 (provided by Rutgers) was used; endogenous in cells; host or cells: H460 human lung carcinoma cells (provided by Rutgers)
T2 sequence (P54756 25-1037): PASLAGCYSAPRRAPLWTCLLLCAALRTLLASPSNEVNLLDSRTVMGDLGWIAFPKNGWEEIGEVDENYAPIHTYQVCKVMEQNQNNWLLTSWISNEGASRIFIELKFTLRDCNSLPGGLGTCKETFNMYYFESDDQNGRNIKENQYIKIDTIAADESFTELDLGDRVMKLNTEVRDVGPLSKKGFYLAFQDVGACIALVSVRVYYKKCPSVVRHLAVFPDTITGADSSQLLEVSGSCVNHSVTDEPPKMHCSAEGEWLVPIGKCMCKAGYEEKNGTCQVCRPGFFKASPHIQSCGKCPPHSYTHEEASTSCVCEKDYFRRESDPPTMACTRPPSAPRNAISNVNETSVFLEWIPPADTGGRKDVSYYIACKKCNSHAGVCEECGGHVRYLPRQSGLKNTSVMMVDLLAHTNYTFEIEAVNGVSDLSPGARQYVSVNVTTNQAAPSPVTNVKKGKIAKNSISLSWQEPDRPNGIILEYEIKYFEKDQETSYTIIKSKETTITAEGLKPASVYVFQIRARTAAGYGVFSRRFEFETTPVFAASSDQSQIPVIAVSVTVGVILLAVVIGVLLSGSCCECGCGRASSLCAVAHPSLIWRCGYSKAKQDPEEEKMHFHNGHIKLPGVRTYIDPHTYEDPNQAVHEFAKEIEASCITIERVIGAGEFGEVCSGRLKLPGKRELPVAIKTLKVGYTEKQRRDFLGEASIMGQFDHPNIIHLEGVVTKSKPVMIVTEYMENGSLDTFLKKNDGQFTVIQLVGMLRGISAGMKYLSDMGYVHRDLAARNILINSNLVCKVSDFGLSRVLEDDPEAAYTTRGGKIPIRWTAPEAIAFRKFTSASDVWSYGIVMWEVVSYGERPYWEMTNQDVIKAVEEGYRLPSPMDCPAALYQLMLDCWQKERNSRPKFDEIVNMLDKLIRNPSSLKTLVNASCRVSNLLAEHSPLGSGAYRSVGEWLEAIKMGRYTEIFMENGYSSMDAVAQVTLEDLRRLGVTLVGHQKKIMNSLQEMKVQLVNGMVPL
Procedure: (§1) A H460 cell line stably expressing EphA5 (provided by Rutgers) was used, alongside H226 cells as a negative control, to test for antibody binding in a flow cytometry assay. The cell lines were first assessed for target expression using 10 μg/ml of the murine 11C12 provided by Rutgers) and MolgG1 non-binging control (Biolegend, California, US). Goat anti-mouse Alexa Fluor 647 (Thermo Fisher, Loughborough, UK) was used for antibody detection.
(§2) For cell binding assays, both cell lines were resuspended in FACS buffer (PBS+1% BSA+0.1% sodium azide) and seeded in 96 well U bottom plates at 1×105 (100 μl) cells per well. The chimeric and six purified humanized variants were tested in the assay alongside the 11C12 murine positive control, MolgG1 and HulgG1 non-binding controls. Samples were prepared at a starting concentration of 10 μg/ml in FACS buffer and underwent a four-fold seven point serial dilution for testing with H460 cells and a three-fold three point serial dilution for the H226 cells. […] Median fluorescence intensity (MFI) was measured using an Attune NxT Flow Cytometer (Thermo Fisher, Loughborough, UK) and 10,000 gated events were acquired per sample. For data analysis, live cell populations were gated based on the forward and side scatter dot plot allowing the Alexa Fluor 647 MFI values to be measured in the RL1 channel.

H226 cells (EphA5−) = assay: Flow cytometry analysis of cell binding, EphA5-negative control cells; set-up: species or system human; conditions: starting 10 μg/ml, three-fold serial dilution
Procedure: as §1, §2

B1: VH0/VK0: chimeric anti-EphA5 antibody, murine 11C12 variable regions (VH SEQ ID NO:1, VL SEQ ID NO:8), human IgG1/kappa constant regions (antibody, V domains shown)
VH: EVTLKESGGGLVQPGGSRKLSCAASGFTFSTFGIHWVRQAPEKGLEWVAYISGASTTIYYADTVKGRFTISRDNPKNTLFLQMTSLRSEDTAMYYCARYGTSFPYGLDYWGQGTSVTVSS
VL: DIVMTQSPGSLAVSLGQRATISCKASQSVDYDGDSYMNWYQQKPGQPPKLLIYGASNLESGIPARFSGSGSGTDFTLNIHPVEEEDAASYYCQQSNEDPFTFGSGTKLEIK
modifications: human IgG1/kappa constant regions without entry
kd ([1]; Biacore T200, 25° C., IgG captured on anti-human IgG chip): 0.0015 s⁻¹
RMAX ([1]; fitted 1:1 model): 47.8
Average Tm2 (° C.) ([2]; average of duplicates): 65.83 °C
Average Tonset (° C.) ([2]; average of duplicates): 55.1 °C
Average Tm1 (° C.) ([2]; average of duplicates, 1 mg/mL in PBS): 57.9 °C
Average Tagg 473 (° C.) ([2]; average of duplicates, SLS at 473 nm): 65.6 °C
Tonset (° C.) ([2]; single replicate): 54.92 °C and 55.23 °C
Tm2 (° C.) ([2]; single replicate, 1 mg/mL in PBS): 65.83 °C
Tm1 (° C.) ([2]; single replicate, 1 mg/mL in PBS, ramp 25-95° C.): 57.83 °C and 57.87 °C
Tagg 473 (° C.) ([2]; single replicate, SLS at 473 nm): 65.72 °C and 65.60 °C
number of thermal transitions detected ([2]; thermal ramp 25-95° C.): two transitions

B2: VH3/VK4: humanized anti-EphA5 IgG1/kappa antibody; VH SEQ ID NO:4, VL SEQ ID NO:12 (antibody, V domains shown)
VH: B1 VH with T3Q, K5V, R18L, E42G, P75S, F80Y, T84N, S115L
VL: DIVMTQSPDSLAVSLGERATINCKSSQSVDYDGDSYMNWYQQKPGKAPKLLIYGASNLESGIPDRFSGSGSGTDFTLTISRLEPEDAASYYCQQSNEDPFTFGQGTKLEIK
binding to EphA5 relative to the chimeric antibody (VH0/VK0) [1]: within two-fold of the chimeric antibody

B3: VH4/VK4: humanized anti-EphA5 IgG1/kappa antibody; VH SEQ ID NO:5, VL SEQ ID NO:12 (antibody, V domains shown)
VH: B1 VH with T3Q, K5V, R18L, E42G, P75S, F80Y, T84N, S88A, M93V, S115L
VL: B2 VL
binding to EphA5 relative to the chimeric antibody (VH0/VK0) [1]: within two-fold of the chimeric antibody

B4: 11C12: anti-human EphA5 monoclonal murine antibody, parental antibody and positive control (antibody, V domains shown)
VH: B1 VH
VL: B1 VL
binding to H460 (EphA5+) cells, MFI dose response [3]: bound to the positive cell line in a concentration dependent manner
binding to H226 (EphA5−) cells (H226 cells (EphA5−)): no binding

Continued, in another order:

binding to EphA5 relative to the chimeric antibody (VH0/VK0) [1]: within two-fold of the chimeric antibody
B5: VH5/VK4: humanized anti-EphA5 IgG1/kappa antibody; VH SEQ ID NO:6, VL SEQ ID NO:12 (antibody, V domains shown)
VH: EVQLVESGGGLVQPGGSLKLSCAASGFTFSTFGIHWVRQAPGKGLEWVAYISGASTTIYYADSVKGRFTISRDNSKNTLYLQMNSLRAEDTAVYYCARYGTSFPYGLDYWGQGTLVTVSS
VL: B2 VL
ranking by Tagg (SLS profiles) ([2]; among the chimeric and six lead humanized variants): highest Tagg values

binding to EphA5 relative to the chimeric antibody (VH0/VK0) [1]: within two-fold of the chimeric antibody
B6: VH5/VK2: humanized anti-EphA5 IgG1/kappa antibody; VH SEQ ID NO:6, VL SEQ ID NO:10 (antibody, V domains shown)
VH: B5 VH
VL: B2 VL with S25A
